Assay results published in IntAct's records for PubMed 16287128.

B1: Matrilin-3 (Homo sapiens), O15232 (parent)
chain: MPRPAPARRLPGLLLLLWPLLLLPSAAPDPVARPGFRRLETRGPGGSPGRRPSPAAPDGAPASGTSEPGRARGAGVCKSRPLDLVFIIDSSRSVRPLEFTKVKTFVSRIIDTLDIGPADTRVAVVNYASTVKIEFQLQAYTDKQSLKQAVGRITPLSTGTMSGLAIQTAMDEAFTVEAGAREPSSNIPKVAIIVTDGRPQDQVNEVAARAQASGIELYAVGVDRADMASLKMMASEPLEEHVFYVETYGVIEKLSSRFQETFCALDPCVLGTHQCQHVCISDGEGKHHCECSQGYTLNADKKTCSALDRCALNTHGCEHICVNDRSGSYHCECYEGYTLNEDRKTCSAQDKCALGTHGCQHICVNDRTGSHHCECYEGYTLNADKKTCSVRDKCALGSHGCQHICVSDGAASYHCDCYPGYTLNEDKKTCSATEEARRLVSTEDACGCEATLAFQDKVSSYLQRLNTKLDDILEKLKINEYGQIHR
partner: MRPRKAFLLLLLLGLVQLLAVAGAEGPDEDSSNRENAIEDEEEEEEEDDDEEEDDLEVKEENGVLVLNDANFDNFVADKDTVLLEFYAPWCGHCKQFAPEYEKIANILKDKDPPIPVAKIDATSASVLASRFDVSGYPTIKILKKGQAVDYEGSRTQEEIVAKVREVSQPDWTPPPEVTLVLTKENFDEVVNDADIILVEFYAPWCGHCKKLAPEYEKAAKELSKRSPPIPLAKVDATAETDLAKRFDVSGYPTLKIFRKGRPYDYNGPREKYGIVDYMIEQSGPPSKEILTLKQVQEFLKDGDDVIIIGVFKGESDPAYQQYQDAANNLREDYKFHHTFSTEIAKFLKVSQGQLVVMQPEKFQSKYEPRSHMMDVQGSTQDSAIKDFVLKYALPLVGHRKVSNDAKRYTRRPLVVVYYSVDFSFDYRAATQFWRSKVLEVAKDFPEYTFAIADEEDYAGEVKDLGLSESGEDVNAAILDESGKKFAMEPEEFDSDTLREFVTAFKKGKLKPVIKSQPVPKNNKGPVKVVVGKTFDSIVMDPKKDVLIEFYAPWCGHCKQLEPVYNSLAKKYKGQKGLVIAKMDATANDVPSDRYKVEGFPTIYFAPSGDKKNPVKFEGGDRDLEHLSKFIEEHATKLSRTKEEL

Variants of: B1
Conditions: with pdia4_human PDIA4, P13667

effect of a mutation on the interaction	Variant
causing an interaction	V194D
causing an interaction	A219D
with no effect	E252K
causing an interaction	R121W
